We go through 1 molecule from patent JP2011160681A (dated 2011).

Common to all, as to assay: ELISA, antigen coated on the plate
For orientation: ELISA stands for enzyme-linked immunosorbent assay.

The target of test [1] is HSA (UniProt P02768 25-609).
The target of test [2] is Bovine serum albumin (bovine, UniProt P02769 25-607).
Test [3] addresses Human hemoglobin (human, UniProt P69905 2-142; P68871 2-147).
In test [4] the target is HAc peptide (Influenza A virus).
The target in test [5] is T1, TP41-1 peptide (HIV-1).
T1 peptide: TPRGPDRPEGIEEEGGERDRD

Chain of Human hemoglobin (P69905 2-142 limits assumed, chain 1 of 2): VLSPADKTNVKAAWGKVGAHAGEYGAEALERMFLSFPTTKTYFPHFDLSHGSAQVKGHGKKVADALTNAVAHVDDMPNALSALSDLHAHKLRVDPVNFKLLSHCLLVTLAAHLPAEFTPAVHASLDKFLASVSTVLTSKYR
Chain of Human hemoglobin (P68871 2-147 limits assumed, chain 2 of 2): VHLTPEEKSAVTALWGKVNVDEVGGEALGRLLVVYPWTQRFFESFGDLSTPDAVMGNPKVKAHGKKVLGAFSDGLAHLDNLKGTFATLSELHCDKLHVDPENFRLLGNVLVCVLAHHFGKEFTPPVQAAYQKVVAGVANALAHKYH
Chain of Bovine serum albumin (P02769 25-607 limits assumed): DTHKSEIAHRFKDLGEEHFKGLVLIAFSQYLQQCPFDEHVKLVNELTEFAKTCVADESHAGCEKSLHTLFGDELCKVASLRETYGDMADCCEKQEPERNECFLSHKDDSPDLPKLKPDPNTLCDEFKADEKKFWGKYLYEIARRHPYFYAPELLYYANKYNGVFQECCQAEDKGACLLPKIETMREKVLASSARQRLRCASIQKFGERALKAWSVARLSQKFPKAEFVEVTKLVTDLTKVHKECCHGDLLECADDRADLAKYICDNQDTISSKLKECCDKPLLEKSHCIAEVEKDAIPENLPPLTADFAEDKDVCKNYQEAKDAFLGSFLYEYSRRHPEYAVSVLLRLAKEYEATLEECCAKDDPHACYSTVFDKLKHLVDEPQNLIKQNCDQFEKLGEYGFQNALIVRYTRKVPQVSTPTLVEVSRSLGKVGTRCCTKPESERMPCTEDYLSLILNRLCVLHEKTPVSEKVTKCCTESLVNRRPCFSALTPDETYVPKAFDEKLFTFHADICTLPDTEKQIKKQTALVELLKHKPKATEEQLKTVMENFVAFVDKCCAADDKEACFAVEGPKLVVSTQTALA
Chain of HSA (P02768 25-609): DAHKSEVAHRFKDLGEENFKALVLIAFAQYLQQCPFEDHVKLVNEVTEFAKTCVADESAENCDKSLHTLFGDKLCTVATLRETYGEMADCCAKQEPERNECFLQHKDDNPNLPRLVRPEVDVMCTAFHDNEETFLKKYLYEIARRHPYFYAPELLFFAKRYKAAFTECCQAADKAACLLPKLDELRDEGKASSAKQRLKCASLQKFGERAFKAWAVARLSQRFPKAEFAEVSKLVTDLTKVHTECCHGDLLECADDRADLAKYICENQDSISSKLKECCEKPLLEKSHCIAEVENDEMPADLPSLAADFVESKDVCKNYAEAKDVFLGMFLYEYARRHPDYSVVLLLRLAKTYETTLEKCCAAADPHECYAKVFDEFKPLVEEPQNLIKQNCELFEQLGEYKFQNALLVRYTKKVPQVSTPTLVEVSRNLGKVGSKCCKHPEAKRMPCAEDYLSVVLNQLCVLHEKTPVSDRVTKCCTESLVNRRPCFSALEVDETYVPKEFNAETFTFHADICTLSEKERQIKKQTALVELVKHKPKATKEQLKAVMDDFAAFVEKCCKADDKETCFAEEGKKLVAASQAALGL

B1: InfA-15 monoclonal antibody (antibody, V domains shown)
VH: QVQLKESGPGLVAPSQSLSITCTVSGFSLTKSGLHWVRQPPGKGLEWLGVIWAGGSTDYNSALTSRLTITKDNSKSQIFFRLNSLQTADTAMYYCVRSTFLYAMDFWGQGTSVTVS
VL: DAVMTQTPLSLPVSLGDQASISCRSSPSLEHSNGNTYLNWYLQKPGQSPQLLIYRVSNRFSGVPDRFSGSGSGTDFTLKISRVEAEDLGVYFCLQVTHVPPTFGGGTKLEIKR
As to B1, the binding result in test [1], in test [2], in test [3], in test [4] and in test [5] was “no binding (tested: 4 μg/ml (coated antigen))” in each case.
